From article PMC7855068 (Nature structural & molecular biology, 2020)

T1: Arp7/Arp9/Rtt102 heterotrimer (S. cerevisiae, UniProt Q12406;Q05123;P53330)
T1 sequence 1: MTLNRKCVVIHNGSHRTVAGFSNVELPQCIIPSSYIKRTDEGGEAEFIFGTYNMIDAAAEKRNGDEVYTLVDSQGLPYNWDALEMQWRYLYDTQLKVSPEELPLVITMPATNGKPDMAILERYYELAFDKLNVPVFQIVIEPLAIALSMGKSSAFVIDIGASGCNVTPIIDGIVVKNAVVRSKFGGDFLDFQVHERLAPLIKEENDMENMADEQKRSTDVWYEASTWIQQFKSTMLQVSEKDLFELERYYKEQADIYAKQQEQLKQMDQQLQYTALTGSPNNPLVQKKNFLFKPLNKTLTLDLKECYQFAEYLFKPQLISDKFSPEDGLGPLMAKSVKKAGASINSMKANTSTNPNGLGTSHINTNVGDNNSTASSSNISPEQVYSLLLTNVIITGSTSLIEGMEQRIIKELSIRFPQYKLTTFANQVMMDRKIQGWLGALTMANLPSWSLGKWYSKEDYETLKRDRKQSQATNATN
T1 sequence 2: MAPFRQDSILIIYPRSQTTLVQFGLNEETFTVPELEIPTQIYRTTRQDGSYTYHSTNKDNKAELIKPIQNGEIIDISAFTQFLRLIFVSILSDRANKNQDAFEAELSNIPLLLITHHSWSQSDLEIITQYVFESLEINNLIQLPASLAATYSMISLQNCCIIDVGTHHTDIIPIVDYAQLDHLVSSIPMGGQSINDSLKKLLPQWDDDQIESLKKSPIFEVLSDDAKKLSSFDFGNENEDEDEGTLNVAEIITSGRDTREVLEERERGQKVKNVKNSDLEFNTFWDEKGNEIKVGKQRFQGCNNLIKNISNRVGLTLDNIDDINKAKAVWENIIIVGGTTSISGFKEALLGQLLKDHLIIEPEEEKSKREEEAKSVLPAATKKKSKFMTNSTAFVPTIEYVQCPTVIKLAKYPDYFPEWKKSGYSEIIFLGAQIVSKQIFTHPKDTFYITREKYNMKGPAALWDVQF
T1 sequence 3: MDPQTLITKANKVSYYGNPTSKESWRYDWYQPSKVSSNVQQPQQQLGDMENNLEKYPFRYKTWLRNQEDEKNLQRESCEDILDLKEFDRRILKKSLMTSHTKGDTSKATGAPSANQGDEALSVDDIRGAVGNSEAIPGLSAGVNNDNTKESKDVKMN

B1: Sth1 (AA 301–1097), truncated ATPase subunit of RSC (domain or fragment)
chain: VRLAEELERQQLLEKRKKERNLHLQKINSIIDFIKERQSEQWSRQERCFQFGRLGASLHNQMEKDEQKRIERTAKQRLAALKSNDEEAYLKLLDQTKDTRITQLLRQTNSFLDSLSEAVRAQQNEAKILHGEEVQPITDEEREKTDYYEVAHRIKEKIDKQPSILVGGTLKEYQLRGLEWMVSLYNNHLNGILADEMGLGKTIQSISLITYLYEVKKDIGPFLVIVPLSTITNWTLEFEKWAPSLNTIIYKGTPNQRHSLQHQIRVGNFDVLLTTYEYIIKDKSLLSKHDWAHMIIDEGHRMKNAQSKLSFTISHYYRTRNRLILTGTPLQNNLPELWALLNFVLPKIFNSAKTFEDWFNTPFANTGTQEKLELTEEETLLIIRRLHKVLRPFLLRRLKKEVEKDLPDKVEKVIKCKLSGLQQQLYQQMLKHNALFVGAGTEGATKGGIKGLNNKIMQLRKICNHPFVFDEVEGVVNPSRGNSDLLFRVAGKFELLDRVLPKFKASGHRVLMFFQMTQVMDIMEDFLRMKDLKYMRLDGSTKTEERTEMLNAFNAPDSDYFCFLLSTRAGGLGLNLQTADTVIIFDTDWNPHQDLQAQDRAHRIGQKNEVRILRLITTDSVEEVILERAMQKLDIDGKVIQAGKFDNKSTAEEQEAFLRRLIESETNRDDDDKAELDDDELNDTLARSADEKILFDKIDKERMNQERADAKAQGLRVPPPRLIQLDELPKVFREDIEEHFKKEDSEPLGRIRQKKRVYYDDGLTEEQFLEAVEDDNMSLEDAIKKRREARERRRLRQ
B2: Arp7 (natural protein)
chain: T1 sequence 1
B3: Arp9 (natural protein)
chain: T1 sequence 2
B4: HSA peptide (Sth1 residues 316–377) (peptide)
peptide: RKKERNLHLQKINSIIDFIKERQSEQWSRQERCFQFGRLGASLHNQMEKDEQKRIERTAKQR
B5: Rtt102 (natural protein)
chain: T1 sequence 3

Experiments:
[1] = biological target: T1, Arp7/Arp9/Rtt102 heterotrimer; assay: cryo-EM structure
[2] = biological target: B1; assay: cryo-EM structure
[3] = biological target: B2; assay: cryo-EM structure
[4] = biological target: T1, Arp7/Arp9/Rtt102 heterotrimer; assay: circular dichroism
[5] = biological target: B3; assay: cryo-EM structure

binding result [2]	binding result [3]	Binder	other results
–	–	B1	binding result [1]: binds
binds	–	B2	–
binds	binds	B3	–
–	–	B4	binding result [4]: binds
–	binds	B5	binding result [5]: binds
